The source of these data is patent US20050208039A1.

The target of the test is 158P1D7 receptor on HUVEC cells (unidentified). Nature of the test: flow cytometry on HUVEC cells; bound ECD detected with anti-158P1D7-PE (MAb M15/X68.2.22 at 1 ug/ml and anti-mouse-PE); by the order of the key, 2.88% is taken as the sample 'HUVEC No ECD' and 6.53% as 'HUVEC 158P1D7 ECD' [panel printed as Fig. 34A]. On the technique in general: In flow cytometry, cells or beads pass a laser one at a time.

Consider “Recombinant extracellular domain (ECD) of 158P1D7 (amino acids 16-608) (from UniProt Q9H5Y7 16-608)”, for which the % gated is 6.53%.
